Results taken from the supplement of paper PMC10567573.

B1: WSB1 (parent)
chain: DLKDDGNMMKVLRGHQNWVYSCAF
B2: GAGE1 (parent)
chain: RPRRYVQPPEMIGPMRPEQFSDEV

Variants of: B1
Assay: protein stability index of a GFP-peptide fusion (GPS, HEK-293T) (PSI 1-6); higher = more stable
Settings: c terminus: a fixed tail appended
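Note: lentivirally expressed fusions sorted by FACS into six bins by GFP to DsRed ratio, PSI derived from sequencing read proportions per bin multiplied by bin number.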

Protein stability index of substitutions, site by site:
L12: T 1.37, H 1.44, Y 2.74, E 2.27, R 3.69, Q 1.16, K 1.85, N 1.5, F 1.67, W 2.38, C 2.38, I 1.49, D 2.01, P 2.2, M 1.24, G 1.91
W18: H 2.34, Q 2.73, K 1.46, C 2.38, G 2.21, S 2.7, T 2.08, P 1.86, R 1.65, N 2.24, F 1.47, L 2.88, A 2.49, D 1.69, E 2.62, V 1.07, M 2.75, Y 2.09, I 2.35
H15: A 2.26, T 1.92, S 1.88, I 1.96, E 2.75, G 4.54, K 2.24, W 1.94, M 1.46, N 2.81, D 1.49, R 1.91, L 1.78, F 2.4, P 2.65, Q 1.5
G14: Y 2.35, N 1.26, P 1.91, K 2.23, S 2, T 2.39, Q 2.31, L 2.05, D 1.91, C 2.43, W 1.87, R 1.29, H 1.81, E 1.45, A 1.33
N17: K 2.1, D 1.94, H 1.26, S 1.81, Q 2.95, R 2.05, G 1.78, A 2.33, P 1.86, E 1.68, F 2.34
C22: P 2.01, S 1.61, D 3.46, Y 1.72, A 2.25, K 1.77, N 1.81, M 2.61, H 1.33, G 1.69, I 2.86, F 2.98, E 2.39, Q 2.15, R 2.33, L 3.06, T 1.9
M9: K 1.95, V 1.27, Y 1.06, T 1.45, E 2.03, H 2.19, I 4.37, F 2.67, S 1.43, N 1.89, L 1.61, A 2.02, Q 1.73, D 1.88, R 1.54
G6: P 2.28, W 3.64, M 1.72, Y 1.77, D 1.94, R 1.62, I 2.23, K 1.75, V 1.74, L 1.13, E 2.38, N 2.12, Q 1.58, S 1.92, A 2.03, C 2.17
N7: T 1.47, E 1.66, H 1.62, S 1.9, R 1.71, D 2.58, W 3.11, A 1.09, G 2.54, C 1.83, Q 1.76, P 2.54, M 3.16, K 2, I 3.63, V 2.03
M8: H 2.34, C 1.38, A 1.83, T 1.54, K 2.15, Y 1.39, V 1.54, D 2.5, L 1.15, P 2.44, R 2.35, W 1.09, N 2.29, G 2.55, I 2.03, Q 2.26, S 2.02
R13: Y 2.46, H 1.46, T 2.21, M 2.28, P 2.02, S 1.53, F 1.92, N 2.74, W 3.05, D 1.32, Q 2.45, A 1.73, K 1.58, E 2.88
A23: G 1.73, H 1.75, N 2.22, I 1.43, T 1.6, F 2.17, R 2.36, V 1.71, L 1.22, P 2.5, E 2.24, C 2.5, S 2.94, K 1.31, Y 2.29, M 1.44
D4: W 2.2, M 2.4, I 2.67, P 2.28, S 2.42, N 3.38, L 3.75, T 1.98, Q 2.63, Y 2.28, K 2.29, R 1.59
K10: S 1.96, A 2.38, R 2.4, N 1.31, P 2.27, E 1.49, Y 2.78, D 1.72, M 1.55, I 2.34, L 2.53, H 1.96, F 4.7, T 1.5, V 2.1, Q 2.02, C 2.19
Q16: C 2.3, L 1.48, F 2.8, D 1.71, T 2.79, S 2.54, I 2.04, N 1.79, K 2.41, H 2.75, Y 1.4, M 2.04, V 1.52, A 2.32, E 2.36, P 2.52
D5: I 2.12, Y 2.25, N 2.04, M 3.35, R 3.41, K 1.69, G 1.68, E 1.96, A 2.66, Q 2, T 3.18, P 3.34, H 1.86, F 3.73
S21: D 2.05, K 1.07, N 1.46, T 1.07, G 2.27, A 2.3, R 1.22, P 2.05, H 2.05, Y 3.37, E 1.94
Y20: Q 1.68, L 2.57, W 2.28, A 2.28, D 1.69, V 3.3, R 2.05, C 3.17, G 1.97, H 2.06, F 1.66, T 2.63, P 1.84, M 1.61, S 1.83, K 1.39, E 1.6
F24: N 2.18, R 2.33, D 3.3, Y 2.38, E 1.82, C 1.47, W 4.14, T 1.98, G 2.19, Q 2.21, A 2.14, I 2.28, L 3.07, P 2.95, M 2.27, H 3.34, V 2.97, K 2.34, S 2.89
V19: K 1.75, F 1.34, S 1.04, N 1.44, Y 2.87, M 2.52, P 2.03, A 2.53, G 2.66, R 2.86, I 2.13, Q 2.07, D 2.15, C 2.73, W 2.28, L 2.22, H 2.12, T 1.71
V11: P 2.31, Q 2.62, A 1.75, R 1.69, M 2, F 2.64, L 1.63, G 1.65, E 2.01, K 1.57, D 1.93, W 2, Y 2.26, S 2.79, N 1.57, T 2.41, I 1.59

Variants of: B2
Assay: as above
Settings: c terminus: a fixed tail appended

Protein stability index, by site and new letter:
R1: E 4.23, C 4.07, D 4.33, A 3.63, F 3.24
